Measurements from IntAct's records for PubMed 20952573.

B1: Transcriptional regulatory protein RcsB (Escherichia coli (strain K12)), P0DMC7 (parent)
chain: MNNMNVIIADDHPIVLFGIRKSLEQIEWVNVVGEFEDSTALINNLPKLDAHVLITDLSMPGDKYGDGITLIKYIKRHFPSLSIIVLTMNNNPAILSAVLDLDIEGIVLKQGAPTDLPKALAALQKGKKFTPESVSRLLEKISAGGYGDKRLSPKESEVLRLFAEGFLVTEIAKKLNRSIKTISSQKKSAMMKLGVENDIALLNYLSSVTLSPADKD
partner: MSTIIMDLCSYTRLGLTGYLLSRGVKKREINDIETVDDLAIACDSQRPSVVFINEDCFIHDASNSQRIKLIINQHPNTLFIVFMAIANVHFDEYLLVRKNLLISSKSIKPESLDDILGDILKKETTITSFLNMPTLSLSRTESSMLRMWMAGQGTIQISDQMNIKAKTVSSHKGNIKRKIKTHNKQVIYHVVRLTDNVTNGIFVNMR

Variants of: B1
Details: with rcsa_ecoli rcsA

Row | Variant | effect of a mutation on the interaction
1 | MNNMNVIIADDHPIVLFGIRKSLEQIEWVNVVGEFEDSTALINNLPKLDAHVLITELSMPGDKYGDGITLIKYIKRHFPSLSIIVLTMNNNPAILSAVLDLDIEGIVLKQGAPTDLPKALAALQKGKKFTPESVSRLLEKISAGGYGDKRLSPKESEVLRLFAEGFLVTEIAKKLNRSIKTISSQKKSAMMKLGVENDIALLNYLSSVTLSPADKD [D56E] | decreasing interaction
